The nanobody polyreactivity screen of Harvey et al. (2022)

Assay: yeast display, Sf9 membrane polyspecificity reagent, FACS + sequencing; frameworks hold sequencing errors
Outline: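 Synthetic nanobody libraries on Saccharomyces cerevisiae BJ5465 were galactose-induced for 36–48 hours, stained 1 hour at 4 °C with 10% biotinylated, detergent-solubilized Sf9 membrane reagent and enriched on streptavidin microbeads. FACS then separated cells into low and high (top ~1%) gates by anti-HA (expression) and streptavidin (reagent binding) fluorescence. Genes were colony-PCR amplified, MiSeq 2 × 250 sequenced and CDR-length filtered. A clone's polyreactivity label is that of its gate of origin.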

Sequence	polyreactivity (PSR sort gate)
QVQLVESGGGLVQAGGSLRLSCAASGRTIRGYAMGWYRQAPGKEREFVASITWNSVSTSYADSVKGRFTISRDNAKNTVYLQMNSLKPEDTAVYYCNRRTGSYGRTPVGKGEYYYWGQGTQVTVSS	high polyreactivity
QVQLVESGGGLVQAGGSLRLSCAASGRTIRHNAMGWYRQAPGKERELVAAISRSGGSTYYADSVKGRFTISRDYAKNTVYLQMNSLKPEDTAVYYCAAGYHIIYTPEYYYWGQGTQVTVSS	high polyreactivity
QVQLVESGGGLVQAGGSLRLSCAASGRTIRNNAMGWYRQAPGKERDLVASITRSGGSTYYADSVKGRFTISRDNANNSVSLQLNSLKPEDTSVFYCNRVAHSLTYPTDHEFNYWGQGTQVTVSS	high polyreactivity
QVQLVESGGGLVQAGGSLRLSCAASGRTIRTYTMGWYRQAAGKERELVAAISWSGSSTYYADSVKGRFTISRDNAKNTVYLQMNSLKPEDTAVYYCAARGLYDYGYWGQGTQVTVSS	high polyreactivity
QVQLVESGGGLVQAGGSLRLSCAASGRTIRWYTMGWYRQAPGKERELVAGISSSGGSTYYAESVKGRYTISRDYAKNTVYLQMNSLKPEDTAVYYCAASAAYYGFYKSVSYEYWGQGTQLTVSS	low polyreactivity
QVQLVESGGGLVQAGGSLRLSCAASGRTIWYYAMGWYRQAPGKESELVAAISWSGGTTFYADSVKGRFTISRDNAKYTVYLQMNSLKPEDTAVYYCAKKCIGYQEWIHSTRRYDYWGQGTQVTVSS	low polyreactivity
QVQLVESGGGLVQAGGSLRLSCAASGRTIYGYAMGWYRQAPGKERELVAAISWTGGRTYYADSVKGRFTISRDNAKNTVYLQMNSLKPEDTAVYYCNARRRGDSGDGYIYGYWGQGTQVNVSS	high polyreactivity
QVQLVESGGGLVQAGGSLRLSCAASGRTIYRYAMGWYRQAPGKERELVAAITRRGVNTYYADSVKGRFTISRDNAKNTVYLQMNSLKPEDTAVYYCAAENGALVTYGYWGQGTQVTVSS	high polyreactivity
QVQLVESGGGLVQAGGSLRLSCAASGRTIYYYARGWYRQAPGKERELVAAITLRGGSTYYADSVKGRFTISRDNAKKTVYLQMNSLKPEDTAVYYCAKESTVRRYDYWGQGTQVTVSS	low polyreactivity
QVQLVESGGGLVQAGGSLRLSCAASGRTLAFNAMGWSRQAPGKERELGAGIRNGTSTNYADSVKGRFTISRVNAKNTVYLQMNCLKPEDTADYYCNVPYYLQSYLSGYDYWGQGTQVSVSS	low polyreactivity
QVQLVESGGGLVQAGGSLRLSCAASGRTLARNAMGWYRQAPGKERELVARIRDSGGSKYYADSVKGRFTISRDNAKNTVYLQMNSLKPEDTAVYYCAARSRLVYSYYTYWGQGTQVTVSS	high polyreactivity
QVQLVESGGGLVQAGGSLRLSCAASGRTLAYYVMGWYRQAPGKERELVAAISGRGGRTNYADSVKGRFTISRDNAKNTVYLQMNSLKPEDTAVYYCAAYRTGYNVDYYYWGQGTQVTVSS	high polyreactivity
QVQLVESGGGLVQAGGSLRLSCAASGRTLDVNAMGWYRQAPGKERELVAAISYSGGITYYADSVKGRFTISRDNAKNTVYLQMNSLKPEDTAVYYCAVVGGYPSYTVDYWGQGTQVTVSS	low polyreactivity
QVQLVESGGGLVQAGGSLRLSCAASGRTLFFYAMGLYRQAPGKERELVAAISSSGTRTYYADSVKGRFTISRDNAKNTVYLQMNSLIPEDTAVYYCNKVKYYRTGGMEYWGQGTQVTVSS	high polyreactivity
QVQLVESGGGLVQAGGSLRLSCAASGRTLGDYGMGWYRQAPGKETQLVAVITSGGSPYYADSVKGRFTISRDNAKNTVYLQMNSLKPEDNAVYFCNARHPYYTVQTGGYDYWGQGTQVTVSS	low polyreactivity
QVQLVESGGGLVQAGGSLRLSCAASGRTLGGYAMVWYRQAPGTERELVAAITRRGGSTYYADSVKGRFTISRDNAKNTVYLQMYSLKQEDTAVYYCAARYLYSDEYWDKFYYWGQGTQVTVSS	high polyreactivity
QVQLVESGGGLVQAGGSLRLSCAASGRTLGGYTMGWYRQAPGKERELVAAITTGGSTNYADSVKGRFTISRDNAKNTVYLQMKSLIPEDTAVYYCATDLVFDKRYWYDFWGEGTQVTVSS	low polyreactivity
QVQLVESGGGLVQAGGSLRLSCAASGRTLGPNAMGWYRQAPGKERELVAGITGRGGITYYTDSEKGRFTISRDNAKNTVYLQMNSLKPEDTAVYYCAARRYRFAGDYRMYYWGQGTQVTVSS	high polyreactivity
QVQLVESGGGLVQAGGSLRLSCAASGRTLGSYAMGWYRQAPGKETELVAAIRGSGVSTYYADSVKGRFTISRDNAKNTVYLQMNSLNPEDTAVYYCAARSYIRVWKKGAVQRSVYYWGQGTQVTVSS	high polyreactivity
QVQLVESGGGLVQAGGSLRLSCAASGRTLGVNAMGWYRQAPGKERELVAAISTRGTTTNYADSVKGRFTISRDNAKNTVYLQMNSLKPEDTAVYYCAVRSRTPRAYYYWGQGTQVTVSS	low polyreactivity
QVQLVESGGGLVQAGGSLRLSCAASGRTLGVYTMGWYRQAPGKERELVATISWDGGITYYADSVKGRFTISRDNAKNTVYLQMNSLKPEDNAVYYCAAVDHSYGWMDYWGQGTQVTVSS	low polyreactivity
QVQLVESGGGLVQAGGSLRLSCAASGRTLGYYAMGWYRQAPGKERELVAAISRSGGSTYYADSVKGRFTISRDHAKNTVYLQMNSLKPEDTAVYYCAATYGPSRYRYDYWGQGTQVTVSS	high polyreactivity

Sequence	polyreactivity (PSR sort gate)
QVQLVESGGGLVQAGGSLRLSCAASGRTLIWYTMGWYRQAPGKERELVAAITSGGSTYYADSVKGRFTISRDNAKNTVYLRMNSLKPEDTAVYYCAAVYPAAPRAYGYWGQGTQVTVSS	low polyreactivity
QVQLVESGGGLVQAGGSLRLSCAASGRTLKKNAMGWYRQAPGKEMELVAAITSSTGITYYADSVKGRFTISRDNAKNTVYLQMNSLKPEDTAVYYCAADPPRTLSLIFYSREWSYDYWGQGTQVTVSS	low polyreactivity
QVQLVESGGGLVQAGGSLRLSCAASGRTLKVYAMGWYRQAPGKERELVAAINNGGSTNYADSVKGRFTISRDNAKNTVYLQMNSLKPEDTAVYYCNAVYYARYRKYTYYYWGQGTQVTVSS	high polyreactivity
QVQLVESGGGLVQAGGSLRLSCAASGRTLLKNAMGWYRQAPGKEREFVAAITYSSGSTYYADSVKGRFTISRDNAKNTVYLQMNSLKPEDTAVYYCAKTNFSQSSRYNYDYWGQGTQVTVSS	low polyreactivity
QVQLVESGGGLVQAGGSLRLSCAASGRTLNYNVLGWYRQAPGKERELVASITSRGGSTRYADSVKGRFTISRDHAKNTVYLQMNSLKPEDTAGYYCAARYTTARSSYDYWGQGTQVTVSS	high polyreactivity
QVQLVESGGGLVQAGGSLRLSCAASGRTLRGNAMGWYRQAPGKEREFVAAITRRGGSTYYADSVKGRFTISRDNAKNTVYLQMNSLKPEDTAVYYCAAEGYDWIYLYYGLGYWGQGTQVTVSS	low polyreactivity
QVQLVESGGGLVQAGGSLRLSCAASGRTLRGYAMGWYRKAPGKEREFVAAISSRGGSTYYADSVKGRFTISRDNAKNTVYLQMNSLKPEDTAVYYCAALRPVFATSHARDYWGQGTQVTVSS	high polyreactivity
QVQLVESGGGLVQAGGSLRLSCAASGRTLRHYAMGWYRQAPGKERELVAAISSTGSSTYYADSVKGRFTISRDNAKITVYLQMNSLKPEDTAVYYCAADKYTWDAGGVVYWGQGTQVTVSS	low polyreactivity
QVQLVESGGGLVQAGGSLRLSCAASGRTLRHYTMGWYRQAPGKERELVAAITSRGSSTYYAESVKGRFTISRDNAKNTVYLQMNSLTPEDTAVYYCNATYVRLTQYFPRLYYPYYFWGQGTQVTVSS	low polyreactivity
QVQLVESGGGLVQAGGSLRLSCAASGRTLRIYAMGWYRQAPGKERELVAAITSSGRTNYADSVKGRFTISRDNAKNTVYLQMNSLKPEDTAVYYCSADYYYYVAGVHYDYWGQGTQVTVSS	low polyreactivity
QVQLVESGGGLVQAGGSLRLSCAASGRTLRRYAMGSYREAPGKERELVATISGRGGSTYYADSVMGRFTISRDNAKNTVYLQMNSLKPEYTAVYYCNRVTSRVSGRYSYDYWGQGTQVTVSS	high polyreactivity
QVQLVESGGGLVQAGGSLRLSCAASGRTLRRYAMGWYRQAPGKERELVAAISRSGSSTYADSVKGRFTISRDNAKNTVYFQMNSLKPEDTAVYYCNAVYGYSAHGYYYRYDYWGQGTQVTVSS	high polyreactivity
QVQLVESGGGLVQAGGSLRLSCAASGRTLRSYAMGWYRQAPGKERELVAAITRTGGDTYYADSVKGRFTISRDNANNTLYLQMNSLKPEDTAVYYCAAQRYRGYDYWGQGTQVTVSS	high polyreactivity
QVQLVESGGGLVQAGGSLRLSCAASGRTLRVNTMGWYRQAPGKERELVAAISSGGSRTNYADSVKGRFTISRDNAKNTVYLQMNSLKPEDTAVYYCNKYNRFVYSPPSVYWGQGTQVTVSS	high polyreactivity
QVQLVESGGGLVQAGGSLRLSCAASGRTLRWYAMGWYRQAPGKERELVAAIRWSGGSTYYADSVKGRFTISRDNAKNTVYLQMNSLKPEDTAVYYCAAYYVARDRRYPKAYSYEYWGQGTQVTVSS	high polyreactivity
QVQLVESGGGLVQAGGSLRLSCAASGRTLRYNTKGWYRQAPGKERELVADISWTGGSTYYADSVKGRFTISRDNAKNTVYLQMNSLKPEDTAVYYCAADEWWYPWYDYWGQGTQVTVSS	high polyreactivity
QVQLVESGGGLVQAGGSLRLSCAASGRTLRYNVMGLYRQAPGKERELVAVIDRSGVSTYYADSVKGRFTISRDNAKNTVYLQMNSLKPEDTAVYYCAAPRVVYRGDYWGQGTQVTVSW	high polyreactivity
QVQLVESGGGLVQAGGSLRLSCAASGRTLRYNVMGWYRHAPGKERELVAAISSGGSTYYADSVKGRFTISRDNAKNTVYLQMNSLKPEDTAVYYCAKRVSNWVTGGGYYYWGQGTQVTVSS	high polyreactivity
QVQLVESGGGLVQAGGSLRLSCAASGRTLRYYAMGWYRQAPGKERELVAAITKSGGSTYYADSVKGRFTISRDNAKNTVYLQMTSLKPEDTAVYYCNKVTYSRAQYIGGDGYYWGQGTQVTVSS	high polyreactivity
QVQLVESGGGLVQAGGSLRLSCAASGRTLSFYAMGWYRQAPGKERELVASISSGGRTYYADSVKGRFTISRDNAKNTVYLQMNSLKPEDTAVYYCAVGYRSRYRSRDDYWGQGTQVTVSS	high polyreactivity
QVQLVESGGGLVQAGGSLRLSCAASGRTLSIYAMGMYRQAPGKEMELVASISSSGGRTDYADSVKGRFTISRDNAKYTVYLQMNSLKPEDTAVYYCAADGGYYYPYRGYHKYYYWGQGTLVTVSS	low polyreactivity
